From USRE49847 (dated 2024)
Positions count from the first letter of the chain named.

T1: soluble CD22-Fc (R&D Systems) (UniProt P20273 20-687)
T1 construct: Bought reagent used to stain CD22 CARs; not shown: Fc part; detected with anti-human IgG Fc-gamma secondary
T1 sequence (looked up): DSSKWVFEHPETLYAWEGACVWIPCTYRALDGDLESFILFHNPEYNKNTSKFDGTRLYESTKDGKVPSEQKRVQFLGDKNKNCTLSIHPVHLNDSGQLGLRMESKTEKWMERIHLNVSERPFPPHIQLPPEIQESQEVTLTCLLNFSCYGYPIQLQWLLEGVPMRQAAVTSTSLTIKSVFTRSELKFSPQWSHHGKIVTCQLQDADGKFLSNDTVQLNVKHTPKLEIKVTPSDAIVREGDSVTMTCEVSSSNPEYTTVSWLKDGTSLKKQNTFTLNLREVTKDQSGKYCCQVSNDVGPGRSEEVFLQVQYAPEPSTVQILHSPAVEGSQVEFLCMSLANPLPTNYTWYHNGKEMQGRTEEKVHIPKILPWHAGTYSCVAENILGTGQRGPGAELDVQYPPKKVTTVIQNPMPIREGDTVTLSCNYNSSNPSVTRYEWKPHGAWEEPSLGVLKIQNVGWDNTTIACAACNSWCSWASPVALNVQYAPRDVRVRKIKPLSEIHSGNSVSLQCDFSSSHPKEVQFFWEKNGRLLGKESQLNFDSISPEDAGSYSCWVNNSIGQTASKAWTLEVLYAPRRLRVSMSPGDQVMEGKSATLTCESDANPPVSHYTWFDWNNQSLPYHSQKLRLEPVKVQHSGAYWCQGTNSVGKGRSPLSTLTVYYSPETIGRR

B1: control anti-CD22 CAR CG#c176 (other)
chain: QSALTQPASASGSPGQSVTISCTGTSSDVGGYNYVSWYQQHPGKAPKLMIYDVSNRPSGVSNRFSGSKSGNTASLTISGLQAEDEADYYCSSYTSSSTLYVFGTGTQLTVLGGGGSEVQLQQSGPGLVKPSQTLSLTCAISGDSMLSNSDTWNWIRQSPSRGLEWLGRTYHRSTWYDDYASSVRGRVSINVDTSKNQYSLQLNAVTPEDTGVYYCARVRLQDGNSWSDAFDVWGQGTMVTVSS
notes: not shown: hinge, transmembrane, 4-1BB and CD3zeta parts of the CAR
B2: control anti-CD22 CAR CG#c175 (other)
chain: QSALTQPASASGSPGQSVTISCTGTSSDVGGYNYVSWYQQHPGKAPKLMIYDVSNRPSGVSNRFSGSKSGNTASLTISGLQAEDEADYYCSSYTSSSTLYVFGTGTQLTVLGGGGSGGGGSGGGGSEVQLQQSGPGLVKPSQTLSLTCAISGDSMLSNSDTWNWIRQSPSRGLEWLGRTYHRSTWYDDYASSVRGRVSINVDTSKNQYSLQLNAVTPEDTGVYYCARVRLQDGNSWSDAFDVWGQGTMVTVSS
notes: as for B1
B3: control anti-CD22 CAR CG#c170 (other)
chain: EVQLQQSGPGLVKPSQTLSLTCAISGDSMLSNSDTWNWIRQSPSRGLEWLGRTYHRSTWYDDYASSVRGRVSINVDTSKNQYSLQLNAVTPEDTGVYYCARVRLQDGNSWSDAFDVWGQGTMVTVSSGGGGSQSALTQPASASGSPGQSVTISCTGTSSDVGGYNYVSWYQQHPGKAPKLMIYDVSNRPSGVSNRFSGSKSGNTASLTISGLQAEDEADYYCSSYTSSSTLYVFGTGTQLTVL
notes: the tie is by that description, not by a printed label; not shown: hinge, transmembrane, 4-1BB and CD3zeta parts of the CAR
B4: tandem CD22/CD19 CAR construct 188 (other)
chain: QSALTQPASASGSPGQSVTISCTGTSSDVGGYNYVSWYQQHPGKAPKLMIYDVSNRPSGVSNRFSGSKSGNTASLTISGLQAEDEADYYCSSYTSSSTLYVFGTGTQLTVLGGGGSEVQLQQSGPGLVKPSQTLSLTCAISGDSMLSNSDTWNWIRQSPSRGLEWLGRTYHRSTWYDDYASSVRGRVSINVDTSKNQYSLQLNAVTPEDTGVYYCARVRLQDGNSWSDAFDVWGQGTMVTVSSGGGGSEIVMTQSPATLSLSPGERATLSCRASQDISKYLNWYQQKPGQAPRLLIYHTSRLHSGIPARFSGSGSGTDYTLTISSLQPEDFAVYFCQQGNTLPYTFGQGTKLEIKGGGGSGGGGSGGGGSQVQLQESGPGLVKPSETLSLTCTVSGVSLPDYGVSWIRQPPGKGLEWIGVIWGSETTYYQSSLKSRVTISKDNSKNQVSLKLSSVTAADTAVYYCAKHYYYGGSYAMDYWGQGTLVTVSSTTTPAPRPPTPAPTIASQPLSLRPEACRPAAGGAVHTRGLDFACDIYIWAPLAGTCGVLLLSLVITLYCKRGRKKLLYIFKQPFMRPVQTTQEEDGCSCRFPEEEEGGCELRVKFSRSADAPAYQQGQNQLYNELNLGRREEYDVLDKRRGRDPEMGGKPRRKNPQEGLYNELQKDKMAEAYSEIGMKGERRRGKGHDGLYQGLSTATKDTYDALHMQALPPR
notes: Distal anti-CD22 scFv L/H short linker, GGGGS, proximal anti-CD19 scFv; leader 1-21 left out; also called CG#c188; c188
B5: CD22-58 CAR (other)
chain: EVQLQQSGPGLVNPSQTLSITCAISGDSVSSNSAAWNWIRQSPSRGLEWLGRTFYRSKWYNDYAVSVKGRITISPDTSKNQFSLQLNSVTPEDTAVYYCAGGDYYYGLDVWGQGTTVTVSSGGGGSGGGGSGGGGSQSALTQPASVSGSPGQSITISCTGSSSDVGGYNSVSWYQQHPGKAPKLMIYEVINRPSGVSHRFSGSKSGNTASLTISGLQAEDEADYYCSSYTSSSTYVFGTGTKVTVL
notes: CAR on primary human T cells; not shown: hinge, transmembrane, 4-1BB and CD3zeta parts of the CAR
B6: CD22-62 CAR (other)
chain: EVQLQQSGPGLVKPSQTLSLTCAISGDSVLSNSDTWNWIRQSPSRGLEWLGRTYHRSTWYDDYASSVRGRVSINVDTSKNQYSLQLNAVTPEDTGVYYCARDRLQDGNSWSDAFDVWGQGTMVTVSSGGGGSGGGGSGGGGSQSALTQPASVSGSPGQSITISCTGTSSDVGGYNYVSWYQQHPGKAPKLMIYDVSNRPSGVSNRFSGSKSGNTASLTISGLQAEDEADYYCSSYTSSSTLYVFGTGTKVTVL
notes: as for B5
B7: CD22-61 CAR (other)
chain: B6 chain with E1Q, Q6E, G139S, D194E
notes: as for B5
B8: CD22-60 CAR (other)
chain: B6 chain with G139S, I162F, V171I, D194E, S209T, V250L
notes: as for B5
B9: CD22-64 CAR (other)
chain: B6 chain with S19P, D102V, S142P, V152A, I160V, K249Q, V250L
notes: as for B5
B10: CD22-59 CAR (other)
chain: EVQLQQSGPGLVKPSQTLSLTCAISGDSVLSNSDTWNWIRQSPSRGLEWLGRTYHRSTWYDDYASSVRGRVSINVDTSKNQYSLQLNAVTPEDTGVYYCARDRLQDGNSWSDAFDVWGQGTMVTVSSGGGGSGGGGSGGGGSQSALTQPASVSGSPGQSITISCTGSSSDIGGFNYVSWYQQHAGEAPKLMIYEVTNRPSGVSDRFSGSKSDNTASLTISGLQAEDEADYYCSSYASGSPLYVFGTGTKVTVL
notes: as for B5
B11: CD22-63 CAR (other)
chain: B6 chain with D194E, V243I
notes: as for B5
B12: CD22-57 CAR (other)
chain: EVQLQQSGPGLVKPSQTLSLTCAISGDSVSNNNAAWNWIRQSPSRGLEWLGRTYHRSTWYNDYVGSVKSRITINPDTSKNQFSLQLNSVTPEDTAVYYCARETDYGDYGAFDIWGQGTTVTVSSGGGGSGGGGSGGGGSQSALTQPASVSGSPGQSITISCTGSRNDIGAYESVSWYQQHPGNAPKLIIHGVNNRPSGVFDRFSVSQSGNTASLTISGLQAEDEADYYCSSHTTTSTLYVFGTGTKVTVL
notes: as for B5
B13: CD22-65 CAR (other)
chain: EVQLQQSGPGLVKPSQTLSLTCAISGDSMLSNSDTWNWIRQSPSRGLEWLGRTYHRSTWYDDYASSVRGRVSINVDTSKNQYSLQLNAVTPEDTGVYYCARVRLQDGNSWSDAFDVWGQGTMVTVSSGGGGSGGGGSGGGGSQSALTQPASASGSPGQSVTISCTGTSSDVGGYNYVSWYQQHPGKAPKLMIYDVSNRPSGVSNRFSGSKSGNTASLTISGLQAEDEADYYCSSYTSSSTLYVFGTGTQLTVLTTTPAPRPPTPAPTIASQPLSLRPEACRPAAGGAVHTRGLDFACDIYIWAPLAGTCGVLLLSLVITLYCKRGRKKLLYIFKQPFMRPVQTTQEEDGCSCRFPEEEEGGCELRVKFSRSADAPAYKQGQNQLYNELNLGRREEYDVLDKRRGRDPEMGGKPRRKNPQEGLYNELQKDKMAEAYSEIGMKGERRRGKGHDGLYQGLSTATKDTYDALHMQALPPR
notes: also called CD22-65_Zmut
B14: CD22-53 CAR (other)
chain: EVQLQQSGPGLVKPSQTLSLTCAISGDSVSSNSAAWNWIRQSPSRGLEWLGRTYYRSKWYSDYAVSVKSRITINPDTSKNQFSLQLNSVTPEDTAVYYCARDPYDFWSGYPDAFDIWGQGTMVTVSSGGGGSGGGGSGGGGSQSALTQPASVSGSPGQSITISCTGTSSDVGGYNYVSWYQQHPGKAPKVIISEVNNRPSGVSHRFSGSKSGNTASLTISGLQAEDEADYFCSSYTSGRTLYVFGTGSKVTVLG
notes: Control CD22 CAR; not shown: hinge, transmembrane, 4-1BB and CD3zeta parts of the CAR

These binders were tested against T1, soluble CD22-Fc (R&D Systems) (assay: FACS surface staining of transduced JNL cells with CD22-Fc).

Row | Binder | binding result
1 | B1 | binds
2 | B2 | binds
3 | B3 | binds
4 | B4 | binds

What follows are binders tested against T1, soluble CD22-Fc (R&D Systems) (assay: flow cytometry, soluble CD22-Fc plus anti-human Fc-PE on CAR-transduced primary T cells (FIG. 4)).

Row | Binder | MFI
5 | B5 | 5700
6 | B6 | > 20000
7 | B7 | > 20000
8 | B8 | > 20000
9 | B9 | > 20000
10 | B10 | > 20000
11 | B11 | > 20000
12 | B12 | > 20000
13 | B13 | > 20000
14 | B14 | > 20000
